From patent publication US20040072152A1
Values joined by “and” are separate entries in the source; they are usually repeats but may differ in a detail not shown here. Equal values may be shown once.

What was measured:
Conditions in all cases: scale: ratio of % tetramer-binding CD8alpha-high cells, bound/unbound fraction
[1] = biological target: E-selectin expressed on CHO-E cells (UniProt P16581); experiment: un-manipulated PBMC, one hour rotary co-incubation with CHO-E monolayer, flow cytometry with tetramer B7-RPR
[2] = biological target: E-selectin expressed on CHO-E cells (UniProt P16581); experiment: peptide-stimulated PBMC, one hour rotary co-incubation with CHO-E monolayer, flow cytometry with tetramer B7-APA
[3] = biological target: E-selectin expressed on CHO-E cells (UniProt P16581); experiment: peptide-stimulated PBMC, one hour rotary co-incubation with CHO-E monolayer, flow cytometry with tetramer B7-RPR

With “CLA-associated E-selectin ligand on HSV-2-specific CD8+ T-cells” the CHO-E-selectin enrichment [1] was 13.2 and 10.1 and 5.6, the CHO-E-selectin enrichment [2] was 8.3 and the CHO-E-selectin enrichment [3] was 9.5.
